In one series the test system is HeLa Kyoto. As to the kind of experiment: melting temperature (median over replicates), in situ; higher = more thermally stable. Particulars: cell cycle stage: G1/S.
Chain of LSM5 (chain, as listed by the source): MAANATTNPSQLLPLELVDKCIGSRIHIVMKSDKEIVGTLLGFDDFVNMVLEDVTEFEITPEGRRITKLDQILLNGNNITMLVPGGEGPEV
Consider “MEVVEAAAAQLETLKFNGTDFGVGEGPAAPSPGSAPVPGTQPPLQSFEGSPDAGQTVEVKPAGEQPLQPVLNAVAAGTPAPQPQPPAESPACGDCVTSPGAAEPARAPDSLETSDSDSDSDSETDSDSSSSSSSSSSSSSSSSSSCISLPPVLSDGDDDLQIEKENKNFPLKTKDELLLNELPSVEELTIILPEDIELKPLGMVSSIIEQLVIIESMTNLPPVNEETVIFKSDRQAAGKIFEIFGPVAHPFYVLRFNSSDHIESKGIKIKETMYFAPSMKDFTQYIFTEKLKQDKGSDASWKNDQEPPPEALDFSDDEKEKEAKQRKKSQIQGRKKLKSEFNEPGEDFTEVHQNWNAHSSASEHAKGYRNREFTRGFSRARYPRSCHGRPPPQHFYNSEHMVSQETSGFPSQRQNNPIMPQYPFPLPVFDMHNFPLRPPPPPPPPPVNMGWATPNMAAHPLLNLPYSLPPPPPPPPLPPPPSSGDSNSHFGPYY [NAF1]”, for which the melting temperature turned out to be 52 °C.
Substance LSM5 returned a melting temperature of 55.9 °C.
On the same count and under the same terms, then “MAEFPSKVSTRTSSPAQGAEASVSALRPDLGFVRSRLGALMLLQLVLGLLVWALIADTPYHLYPAYGWVMFVAVFLWLVTIVLFNLYLFQLHMKLYMVPWPLVLMIFNISATVLYITAFIACSAAVDLTSLRGTRPYNQRAAASFFACLVMIAYGVSAFFSYQAWRGVGSNAATSQMAGGYA [PLLP]”, with 56.7 °C.

Staying with this series, now noted: cell cycle stage: mitosis.
“MEVVEAAAAQLETLKFNGTDFGVGEGPAAPSPGSAPVPGTQPPLQSFEGSPDAGQTVEVKPAGEQPLQPVLNAVAAGTPAPQPQPPAESPACGDCVTSPGAAEPARAPDSLETSDSDSDSDSETDSDSSSSSSSSSSSSSSSSSSCISLPPVLSDGDDDLQIEKENKNFPLKTKDELLLNELPSVEELTIILPEDIELKPLGMVSSIIEQLVIIESMTNLPPVNEETVIFKSDRQAAGKIFEIFGPVAHPFYVLRFNSSDHIESKGIKIKETMYFAPSMKDFTQYIFTEKLKQDKGSDASWKNDQEPPPEALDFSDDEKEKEAKQRKKSQIQGRKKLKSEFNEPGEDFTEVHQNWNAHSSASEHAKGYRNREFTRGFSRARYPRSCHGRPPPQHFYNSEHMVSQETSGFPSQRQNNPIMPQYPFPLPVFDMHNFPLRPPPPPPPPPVNMGWATPNMAAHPLLNLPYSLPPPPPPPPLPPPPSSGDSNSHFGPYY [NAF1]” registered a melting temperature of 52.1 °C.
Still for that read-out and setting: as for LSM5, the figure is 52.9 °C.
The same measure, in the same setting: as for “MAEFPSKVSTRTSSPAQGAEASVSALRPDLGFVRSRLGALMLLQLVLGLLVWALIADTPYHLYPAYGWVMFVAVFLWLVTIVLFNLYLFQLHMKLYMVPWPLVLMIFNISATVLYITAFIACSAAVDLTSLRGTRPYNQRAAASFFACLVMIAYGVSAFFSYQAWRGVGSNAATSQMAGGYA [PLLP]”, the figure is 58.5 °C; as for “MAALGGDGLRLLSVSRPERPPESAALGGLGPGLCCWVSVFSCLSLACSYVGSLYVWKSELPRDHPAVIKRRFTSVLVVSSLSPLCVLLWRELTGIQPGTSLLTLMGFRLEGIFPAALLPLLLTMILFLGPLMQLSMDCPCDLADGLKVVLAPRSWARCLTDMRWLRNQVIAPLTEELVFRACMLPMLAPCMGLGPAVFTCPLFFGVAHFHHIIEQLRFRQSSVGNIFLSAAFQFSYTAVFGAYTAFLFIRTGHLIGPVLCHSFCNYMGFPAVCAALEHPQRRPLLAGYALGVGLFLLLLQPLTDPKLYGSLPLCVLLERAGDSEAPLCS [RCE1]”, 55.3 °C.

The test system of a further series is HeLa Kyoto. As to the kind of experiment: thermal stability score vs G1/S (z-score of summed log2 fold changes over temperatures); higher = more thermally stable than in G1/S. Particulars: cell cycle stage: early G1 (4.5 h after nocodazole release).
“MEVVEAAAAQLETLKFNGTDFGVGEGPAAPSPGSAPVPGTQPPLQSFEGSPDAGQTVEVKPAGEQPLQPVLNAVAAGTPAPQPQPPAESPACGDCVTSPGAAEPARAPDSLETSDSDSDSDSETDSDSSSSSSSSSSSSSSSSSSCISLPPVLSDGDDDLQIEKENKNFPLKTKDELLLNELPSVEELTIILPEDIELKPLGMVSSIIEQLVIIESMTNLPPVNEETVIFKSDRQAAGKIFEIFGPVAHPFYVLRFNSSDHIESKGIKIKETMYFAPSMKDFTQYIFTEKLKQDKGSDASWKNDQEPPPEALDFSDDEKEKEAKQRKKSQIQGRKKLKSEFNEPGEDFTEVHQNWNAHSSASEHAKGYRNREFTRGFSRARYPRSCHGRPPPQHFYNSEHMVSQETSGFPSQRQNNPIMPQYPFPLPVFDMHNFPLRPPPPPPPPPVNMGWATPNMAAHPLLNLPYSLPPPPPPPPLPPPPSSGDSNSHFGPYY [NAF1]” displayed a thermal stability score of 0.0445.
Still for that read-out and setting: as for LSM5, the figure is -2.66; as for “MWSAGRGGAAWPVLLGLLLALLVPGGGAAKTGAELVTCGSVLKLLNTHHRVRLHSHDIKYGSGSGQQSVTGVEASDDANSYWRIRGGSEGGCPRGSPVRCGQAVRLTHVLTGKNLHTHHFPSPLSNNQEVSAFGEDGEGDDLDLWTVRCSGQHWEREAAVRFQHVGTSVFLSVTGEQYGSPIRGQHEVHGMPSANTHNTWKAMEGIFIKPSVEPSAGHDEL [SDF2L1]”, 4.06.
Same read-out and setting: as for “MAEFPSKVSTRTSSPAQGAEASVSALRPDLGFVRSRLGALMLLQLVLGLLVWALIADTPYHLYPAYGWVMFVAVFLWLVTIVLFNLYLFQLHMKLYMVPWPLVLMIFNISATVLYITAFIACSAAVDLTSLRGTRPYNQRAAASFFACLVMIAYGVSAFFSYQAWRGVGSNAATSQMAGGYA [PLLP]”, the figure is -2.71; as for “MAALGGDGLRLLSVSRPERPPESAALGGLGPGLCCWVSVFSCLSLACSYVGSLYVWKSELPRDHPAVIKRRFTSVLVVSSLSPLCVLLWRELTGIQPGTSLLTLMGFRLEGIFPAALLPLLLTMILFLGPLMQLSMDCPCDLADGLKVVLAPRSWARCLTDMRWLRNQVIAPLTEELVFRACMLPMLAPCMGLGPAVFTCPLFFGVAHFHHIIEQLRFRQSSVGNIFLSAAFQFSYTAVFGAYTAFLFIRTGHLIGPVLCHSFCNYMGFPAVCAALEHPQRRPLLAGYALGVGLFLLLLQPLTDPKLYGSLPLCVLLERAGDSEAPLCS [RCE1]”, -0.209.

(Values after the supplement of paper PMC5998384.)
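For melting temperature (median over replicates), in situ in this document: HeLa Kyoto cells synchronized by double thymidine or nocodazole block, proteins quantified by TMT10plex mass spectrometry, three independent biological replicates.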
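For thermal stability score vs G1/S (z-score of summed log2 fold changes over temperatures) in this document: synchronized HeLa Kyoto cells, proteins quantified by TMT10plex mass spectrometry, three biological replicates, mitosis taken 0.5 h after nocodazole release, G1/S directly after double thymidine block.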
